The record followed here is US20210395761, “SERINE RECOMBINASES MEDIATING STABLE INTEGRATION INTO PLANT GENOMES” (GREENVENUS, LLC, published 2021).

B1: lettuce pseudo-attB 310607752 (dsDNA)
DNA 1: CACAAAAAATTGACCATTTCTAGCAACTTCCTATGATACGTTGATACTTTCTAAACATTAATTACAATGACAAAATGAAGTCTACCAAATCATTCATAGA
DNA 2: TCTATGAATGATTTGGTAGACTTCATTTTGTCATTGTAATTAATGTTTAGAAAGTATCAACGTATCATAGGAAGTTGCTAGAAATGGTCAATTTTTTGTG
B2: lettuce pseudo-attB 207599470 (dsDNA)
DNA 1: CAATGGTGAATATAGTCCGGCGACCAACTCTGTCCACTATCAGCAACGATAAAAAGGTCATGCTAAGACCCACAAGCCCAGTCACCACTGCTGACATAAG
DNA 2: CTTATGTCAGCAGTGGTGACTGGGCTTGTGGGTCTTAGCATGACCTTTTTATCGTTGCTGATAGTGGACAGAGTTGGTCGCCGGACTATATTCACCATTG
B3: lettuce pseudo-attB 115327723 (dsDNA)
DNA 1: TATTTGTGATGTGACATGACAAATAATGATGTTACAATATTATGTACCTCTAAATGAGATCTAGCATTGAAGATTGCATGAATATTCTTGAGTGTGTTATT
DNA 2: AATAACACACTCAAGAATATTCATGCAATCTTCAATGCTAGATCTCATTTAGAGGTACATAATATTGTAACATCATTATTTGTCATGTCACATCACAAATA
B4: lettuce pseudo-attB 328302882 (dsDNA)
DNA 1: TCCGTCACAAATTGCATCACTACGACTAAGATCTTCATCAATGATTCTATTAAGGAGATTCTTACATTGAAGGAGAAGTTACATAAATTCTTTATTATTT
DNA 2: AAATAATAAAGAATTTATGTAACTTCTCCTTCAATGTAAGAATCTCCTTAATAGAATCATTGATGAAGATCTTAGTCGTAGTGATGCAATTTGTGACGGA
B5: lettuce pseudo-attB 13364626 (dsDNA)
DNA 1: TGAATTTCTTATGAAGGTTACAACGCATCGTGGATTACAAGCAATTCTGTTTAGTCTGTTATGTTGTTGAATTTGAATGGATCTTGTCCTCAGTTACTCA
DNA 2: TGAGTAACTGAGGACAAGATCCATTCAAATTCAACAACATAACAGACTAAACAGAATTGCTTGTAATCCACGATGCGTTGTAACCTTCATAAGAAATTCA
B6: lettuce pseudo-attB 411877132 (dsDNA)
DNA 1: ATAAGTTTAGATCTTATTGAACTAGGCTTGTGGTGCTTGTTTAAGGCCATAAATCGCCTTATTCAAGCGACAAAAATGAGACGAATAGGTGGAGTCTTCA
DNA 2: TGAAGACTCCACCTATTCGTCTCATTTTTGTCGCTTGAATAAGGCGATTTATGGCCTTAAACAAGCACCACAAGCCTAGTTCAATAAGATCTAAACTTAT
B7: N. benthamiana pseudo-attB Niben101Scf00732 (dsDNA)
DNA 1: not shown
DNA 2: not shown
B8: N. benthamiana pseudo-attB Niben101Scf04574 (dsDNA)
DNA 1: TAGGCTTACATTCCTGATGTACTATCCCATTATGCAATAATAAAGATGCAAAATAGGAAATGTCATTGACAGCTACGAGATCTATCTTTATTGATTCACT
DNA 2: AGTGAATCAATAAAGATAGATCTCGTAGCTGTCAATGACATTTCCTATTTTGCATCTTTATTATTGCATAATGGGATAGTACATCAGGAATGTAAGCCTA
B9: N. benthamiana pseudo-attB Niben101Scf04030 (dsDNA)
DNA 1: TTGCTGTCTTTTCATACTTTTCTAAGTTGAAAGTACTTGAAAGTACGACCAAGAAAATGATTATATTTGACACAGAAAATGCAAGGTACTTTGAATGTGA
DNA 2: TCACATTCAAAGTACCTTGCATTTTCTGTGTCAAATATAATCATTTTCTTGGTCGTACTTTCAAGTACTTTCAACTTAGAAAAGTATGAAAAGACAGCAA
B10: N. benthamiana pseudo-attB Niben101Scf11415 (dsDNA)
DNA 1: CTAATATACATTGACAGTGTTAAAAAAAATCTATTAACGACAATATAGAGAAGAGAGTACTTACATGAATGACGTCTACTTTGACTCCGTCAATTCCAAC
DNA 2: GTTGGAATTGACGGAGTCAAAGTAGACGTCATTCATGTAAGTACTCTCTTCTCTATATTGTCGTTAATAGATTTTTTTTAACACTGTCAATGTATATTAG
B11: N. benthamiana pseudo-attB Niben101Scf00773 (dsDNA)
DNA 1: ACATGGAGCAATGATGGAGAAAAATGGTGGTCATTACTACTGAAGTTGTCAAAGCAAAGCTGTCAGGTAACATCAAATGATCTCTAAATCAATTAGTCTT
DNA 2: AAGACTAATTGATTTAGAGATCATTTGATGTTACCTGACAGCTTTGCTTTGACAACTTCAGTAGTAATGACCACCATTTTTCTCCATCATTGCTCCATGT
B12: N. benthamiana pseudo-attB Niben101Scf13522 (dsDNA)
DNA 1: GGATAAGGGAGGGTTTAGATATTTTGAAAGGGTTAAGGGGTAAAATCACTAAGGGGGAATTAACAATGCACACTAGGGTTGCCTTAAAAGTGCCTATATA
DNA 2: TATATAGGCACTTTTAAGGCAACCCTAGTGTGCATTGTTAATTCCCCCTTAGTGATTTTACCCCTTAACCCTTTCAAAATATCTAAACCCTCCCTTATCC

For one data set, the target named is T1, SPβc2 serine recombinase (SPβc2-HA-NLS) (Bacillus subtilis phage SPβc2, UniProt O32006 SEQ:1-545). Kind of data set: cell_activity; partner attP vector. As to conditions: tags: C-terminal HA and SV40 NLS. The text has this: In addition to the 20 GFP-positive kanamycin-resistant regenerated events, 35 GFP-positive kanamycin-resistant calli were also sampled for gDNA extraction and insertion analysis. These events were not analyzed by qPCR for NPT-II copy number due to the likelihood of circular non-integrated plasmid being present in the callus tissue. The 55 unique GFP-positive kanamycin-resistant attP/SPβc2 events were screened by end-point PCR for the right gDNA:insert junction (SpecR side) for each of the 7 previously identified integration sites. Four of the 7 insertion sites were identified in multiple unique events with one of the integration sites found in 8 events including the 2 events in which it was identified by next-gen sequencing (Table 13). Sanger sequencing of amplicons from both left and right gDNA:insert borders for 3 of the events with integrations in site 7493878 identified a lbp difference in the insert:gDNA recombination site compared to the originally identified borders (FIG. 20 C-E). As was done in Benthi, the population was also screened for presence of the recombinase expression construct (ID363); it was found in 2 out of the 20 regenerated attP/SPβc2 events (data not shown).
T1 sequence (O32006 whole entry): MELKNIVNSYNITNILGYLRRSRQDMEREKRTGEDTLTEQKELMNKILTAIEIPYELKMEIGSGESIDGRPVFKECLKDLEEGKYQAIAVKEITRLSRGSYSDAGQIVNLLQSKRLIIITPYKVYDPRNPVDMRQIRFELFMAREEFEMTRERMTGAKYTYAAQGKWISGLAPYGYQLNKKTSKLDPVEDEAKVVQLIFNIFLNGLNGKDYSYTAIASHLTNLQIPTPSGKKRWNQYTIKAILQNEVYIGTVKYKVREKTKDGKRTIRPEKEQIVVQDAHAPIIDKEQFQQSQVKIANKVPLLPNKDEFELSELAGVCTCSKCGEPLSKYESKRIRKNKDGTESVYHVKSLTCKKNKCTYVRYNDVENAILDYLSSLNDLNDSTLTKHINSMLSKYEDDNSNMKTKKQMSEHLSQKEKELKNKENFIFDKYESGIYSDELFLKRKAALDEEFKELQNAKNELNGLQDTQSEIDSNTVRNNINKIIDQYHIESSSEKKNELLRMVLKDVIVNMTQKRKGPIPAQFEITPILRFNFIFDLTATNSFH
For the molecule B1, the activity amounted to 1 integration events.

With B2, the activity is 7 integration events.

On to B3, for which the activity turned out to be 1 integration events.

As to B4, the activity was found to be 2 integration events.

Regarding B5, the activity worked out at 1 integration events.

For the molecule B6, the activity is 2 integration events.

In the next data set the target is T1, SPβc2 serine recombinase (SPβc2-HA-NLS). Nature of the data set: cell_activity; partner attP vector. As to conditions: tags: C-terminal HA and SV40 NLS. This is another data set of the same source. The protocol: Wild tobacco relative Nicotiana benthamiana (Benthi) events were generated through co-transfection of a SPβc2 expression vector (or control filler vector: CAT) plus a target integration vector containing GFP, NptII, and a SPβc2 attachment site (attP, attB, or site-less control). Colonies were regenerated in the presence of a kanamycin gradient to detect NptII and the presence of GFP was determined through illumination with a blue “biolight” together with an appropriate filter (FIG. 1). […] Enhanced regeneration of transgenic colonies varied between 10 and 65 fold and was dependent on the Kanamycin concentration used for selection. […] Very few GFP-positive kanamycin-resistant colonies arose from the attB/SPβc2 or Siteless/SPβc2 conditions, indicating a dependence on the attP site for interaction with plant pseudo-attB sites. […] A total of 126 plants from 91 unique calli events were regenerated, transplanted into soil, and carried forward to seed collection (Table 7).
To determine whether any of the sites identified by GenomeWalker were preferentially utilized for integration by the SPβc2 recombinase, 64 attP/SPβc2 regenerated events were screened by end-point PCR for amplification of the left (35S side) gDNA:insert border.
Turning to B7, the activity was determined as 1 integration events.

On to B8, for which the activity amounted to 1 integration events.

For the molecule B9, the activity was determined as 2 integration events.

On to B10, for which the activity was determined as 1 integration events.

In the case of B11, the activity amounted to 1 integration events.

Consider B12, for which the activity was determined as 2 integration events.
